# Ends that are not written are not given here.
# T1: GST-TIR1-ASK1 complex (Arabidopsis thaliana, UniProt Q570C0 1-594; Q39255 1-160)
# T1 construct: F-box protein TIR1, Arabidopsis thaliana; ASK1 (SKP1 homologue), Arabidopsis thaliana; also called GST-tagged TIR1
# T1 sequence (looked up) 1: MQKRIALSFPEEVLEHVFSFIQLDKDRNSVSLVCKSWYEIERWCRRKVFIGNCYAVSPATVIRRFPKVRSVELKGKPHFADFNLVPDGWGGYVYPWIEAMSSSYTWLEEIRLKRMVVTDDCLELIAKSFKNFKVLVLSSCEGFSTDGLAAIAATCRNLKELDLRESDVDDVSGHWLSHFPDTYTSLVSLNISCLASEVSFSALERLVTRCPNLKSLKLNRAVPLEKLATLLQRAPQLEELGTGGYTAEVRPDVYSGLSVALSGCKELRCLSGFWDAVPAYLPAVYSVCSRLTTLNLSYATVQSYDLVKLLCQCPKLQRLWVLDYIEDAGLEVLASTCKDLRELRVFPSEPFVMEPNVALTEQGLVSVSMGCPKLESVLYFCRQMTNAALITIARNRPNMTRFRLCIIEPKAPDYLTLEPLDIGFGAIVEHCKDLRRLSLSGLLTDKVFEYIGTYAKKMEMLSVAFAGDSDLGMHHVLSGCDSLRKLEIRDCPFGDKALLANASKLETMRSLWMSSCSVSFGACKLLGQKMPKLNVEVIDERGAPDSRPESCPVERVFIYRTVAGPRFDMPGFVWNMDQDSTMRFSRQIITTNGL
# T1 sequence (looked up) 2: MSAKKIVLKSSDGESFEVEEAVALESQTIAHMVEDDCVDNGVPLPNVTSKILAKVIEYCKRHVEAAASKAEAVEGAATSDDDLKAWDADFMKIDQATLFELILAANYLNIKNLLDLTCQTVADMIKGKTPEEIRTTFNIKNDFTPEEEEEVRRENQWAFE
# B1: Biotin-labeled Avi-IKZF1 ZF2-3 (141-196) (domain or fragment, human, UniProt Q13422 141-196, looked up)
# chain: {Avi‑tag(biotin)}-GERPFQCNQCGASFTQKGNLLRHIKLHSGEKPFKCHLCNYACRRRDALTGHLRTHS
# modifications: cysteine pairing not given here
# notes: human IKZF1 (Ikaros), zinc fingers 2-3, residues 141-196; also called biotinylated IKZF1^ZF2-3; not shown: GST, N-terminal, cleaved; Avi-tag, N-terminal, kept
# B2: Label-free IKZF1 ZF2-3 (141-196) (domain or fragment, human, UniProt Q13422 141-196, looked up)
# chain: GERPFQCNQCGASFTQKGNLLRHIKLHSGEKPFKCHLCNYACRRRDALTGHLRTHS
# notes: human IKZF1 (Ikaros), zinc fingers 2-3, residues 141-196; also called Avi-IKZF1^ZF2-3; not shown: GST, N-terminal, cleaved
# B3: IAA7 degron peptide, non-labeled (peptide)
# chain: QVVGWPPVRNYRK
# modifications: synthetic peptide, unlabelled; limits not given, taken from the IAA7 degron peptide of the TIR1-ASK1 crystal structures (13-mer, PDB 2P1Q)
# B4: Biotin-labeled Avi-CK1α (enzyme, human, UniProt P48729 1-337, looked up)
# chain: MASSSGSKAEFIVGGKYKLVRKIGSGSFGDIYLAINITNGEEVAVKLESQKARHPQLLYESKLYKILQGGVGIPHIRWYGQEKDYNVLVMDLLGPSLEDLFNFCSRRFTMKTVLMLADQMISRIEYVHTKNFIHRDIKPDNFLMGIGRHCNKLFLIDFGLAKKYRDNRTRQHIPYREDKNLTGTARYASINAHLGIEQSRRDDMESLGYVLMYFNRTSLPWQGLKAATKKQKYEKISEKKMSTPVEVLCKGFPAEFAMYLNYCRGLRFEEAPDYMYLRQLFRILFRTLNHQYDYTFDWTMLKQKAAQQAASSSGQGQQAQTPTGKQTDKTKSNMKGF
# modifications: biotin on the Avi-tag (BirA-catalyzed)
# notes: human casein kinase 1 alpha (CK1α); also called CK1a; source: Hi5 insect cells, purified (Ni-NTA, TEV, cation exchange, SEC, BirA biotinylation, SEC); not shown: His-Set3, N-terminal, cleaved; Avi-tag, N-terminal, kept
# How the values were obtained:
# Details in all cases: both partners purified
# [1] = target: T2, DDB1-CRBN complex (CRBN Δ1-40 with full-length DDB1), tag-free (human, UniProt Q96SW2 41-442; Q16531 1-1140); experiment: BLI; biotinylated IKZF1 ZF2-3 or CK1α on streptavidin probe, tag-free DDB1–CRBN as analyte, no IMiD; 30 °C; 25 mM HEPES pH 7.4, 100 mM NaCl, 1 mM TCEP, 0.1% Tween-20, 0.05 mg/mL BSA
# T2 construct: human cereblon (CRBN) lacking residues 1-40; human DDB1; also called CRBN–DDB1 complex; CRBN in complex with full-length DDB1; source: Hi5 insect cells, co-expressed, purified (Ni-NTA, TEV, anion exchange, SEC); not shown: SUMO-tag, N-terminal, cleaved; His-Msb-tag, N-terminal, cleaved
# His-DDB1–CRBN complex = target: T3, His-DDB1–CRBN complex (human, UniProt Q96SW2 41-442; Q16531 1-1140); experiment: AlphaScreen or HTRF; competition without pomalidomide: 0.9 nM His-DDB1–CRBN on acceptor beads, 8.3 nM biotinylated IKZF1 ZF2-3 on donor beads, label-free IKZF1 ZF2-3 titrated
# T3 construct: human cereblon (CRBN) lacking residues 1-40; human DDB1; Held on AlphaScreen acceptor beads by the His-tag; source: Hi5 insect cells, co-expressed, purified (Ni-NTA); not shown: His-Msb-tag, N-terminal, kept
# GST-TIR1-ASK1 complex [2] = target: T1, GST-TIR1-ASK1 complex; experiment: AlphaScreen or HTRF; competition without auxin: 0.9 nM GST-TIR1 on acceptor beads, 8.3 nM biotinylated IAA7 degron peptide on donor beads, label-free IAA7 degron peptide titrated
# GST-TIR1-ASK1 complex [3] = target: T1, GST-TIR1-ASK1 complex; experiment: BLI; TIR1 and IAA7 degron without auxin; biotinylated IAA7 on streptavidin probe or GST-TIR1 on anti-GST probe (not told which); 30 °C; 25 mM HEPES pH 7.4, 100 mM NaCl, 1 mM TCEP, 0.1% Tween-20, 0.05 mg/mL BSA
binder,measurement,setting,value
B1,Kd,[1],223 nM
B2,IC50,His-DDB1–CRBN complex,200 to 300 nM
B3,IC50,GST-TIR1-ASK1 complex [2],18000 to 20000 nM
same,Kd,GST-TIR1-ASK1 complex [3],18500 nM
B4,Kd,[1],2300 nM

# Reference: article PMC8831599, “Defining molecular glues with a dual-nanobody cannabidiol sensor” (Nature Communications, 2022)
